± gives the uncertainty stated by the source.
B1: Zinc finger homeobox protein 4, residues 2562 to 2617; numbered along this chain, Q86UP3 (parent)
chain: RLRTTITPEQLEILYEKYLLDSNPTRKMLDHIAREVGLKKRVVQVWFQNTRARERK

Variants of: B1
Assay: abundance fitness (aPCA) (normalised: wild type 0, dead -1); higher = more abundant; growth selection in yeast, the domain comes from the species named
Conditions: Homo sapiens

First: RLRTTITPEQLEILYEKYLLDSNPTRKMLDHIAREVGLKKRVVQVWFQNTRQRERK
Second: RLRTTITPEQLEILYEKYLLDSNPTRKMLDHIAREVGLKKRVVQVWFQNTRRRERK
The abundance fitness of the first is higher: -0.035 ± 0.064 for the first, -0.321 ± 0.071 for the second.

Going from RLRTTITPEQLEILYEKYLLDSNPTRKMLDHIAREVGLKKRVVQVWFQNTRGRERK to RLRTTITPEQLEILYEKYLLDSNPTRKMLDHIAREVGLKKRVVQVWFQNTRERERK, the abundance fitness rises from -0.096 ± 0.054 to 0.283 ± 0.077.

RLRTTITPEQLEILYEKYLLDSNPTRKMLDHIAREVGLKKRVVQVWFQNTRHRERK and RLRTTITPEQLEILYEKYLLDSNPTRKMLDHIAREVGLKKRVVQVWFQNTRLRERK are within error of each other in abundance fitness: -0.172 ± 0.071 for the first, -0.226 ± 0.069 for the second.

Compared with RLRTTITPEQLEILYEKYLLDSNPTRKMLDHIAREVGLKKRVVQVWFQNTRCRERK, RLRTTITPEQLEILYEKYLLDSNPTRKMLDHIAREVGLKKRVVQVWFQNTRDRERK is higher in abundance fitness: -0.702 ± 0.24 for the first, 0.384 ± 0.056 for the second.

RLRTTITPEQLEILYEKYLLDSNPTRKMLDHIAREVGLKKRVVQVWFQNTRMRERK and RLRTTITPEQLEILYEKYLLDSNPTRKMLDHIAREVGLKKRVVQVWFQNTRFRERK are within error of each other in abundance fitness: -0.268 ± 0.11 for the first, -0.498 ± 0.28 for the second.

Compared with RLRTTITPEQLEILYEKYLLDSNPTRKMLDHIAREVGLKKRVVQVWFQNTRPRERK, RLRTTITPEQLEILYEKYLLDSNPTRKMLDHIAREVGLKKRVVQVWFQNTRKRERK is higher in abundance fitness: -0.693 ± 0.15 for the first, -0.086 ± 0.13 for the second.

Compared with RLRTTITPEQLEILYEKYLLDSNPTRKMLDHIAREVGLKKRVVQVWFQNTRNRERK, RLRTTITPEQLEILYEKYLLDSNPTRKMLDHIAREVGLKKRVVQVWFINTRARERK is lower in abundance fitness: 0.189 ± 0.13 for the first, -0.693 ± 0.34 for the second.

First: RLRTTITPEQLEILYEKYLLDSNPTRKMLDHIAREVGLKKRVVQVWFYNTRARERK
Second: RLRTTITPEQLEILYEKYLLDSNPTRKMLDHIAREVGLKKRVVQVWFDNTRARERK
The abundance fitness of the first is lower: -0.168 ± 0.13 for the first, 0.392 ± 0.11 for the second.

Compared with RLRTTITPEQLEILYEKYLLDSNPTRKMLDHIAREVGLKKRVVQVWFWNTRARERK, RLRTTITPEQLEILYEKYLLDSNPTRKMLDHIAREVGLKKRVVQVWFTNTRARERK is higher in abundance fitness: -0.556 ± 0.12 for the first, 0.008 ± 0.065 for the second.

Going from RLRTTITPEQLEILYEKYLLDSNPTRKMLDHIAREVGLKKRVVQVWFENTRARERK to RLRTTITPEQLEILYEKYLLDSNPTRKMLDHIAREVGLKKRVVQVWFRNTRARERK, the abundance fitness falls from 0.433 ± 0.07 to -0.166 ± 0.07.

RLRTTITPEQLEILYEKYLLDSNPTRKMLDHIAREVGLKKRVVQVWFMNTRARERK and RLRTTITPEQLEILYEKYLLDSNPTRKMLDHIAREVGLKKRVVQVWFNNTRARERK are within error of each other in abundance fitness: -0.16 ± 0.084 for the first, -0.216 ± 0.17 for the second.

Going from RLRTTITPEQLEILYEKYLLDSNPTRKMLDHIAREVGLKKRVVQVWFCNTRARERK to RLRTTITPEQLEILYEKYLLDSNPTRKMLDHIAREVGLKKRVVQVWFANTRARERK, the abundance fitness rises from -0.287 ± 0.091 to 0.2 ± 0.093.

Compared with RLRTTITPEQLEILYEKYLLDSNPTRKMLDHIAREVGLKKRVVQVWFPNTRARERK, RLRTTITPEQLEILYEKYLLDSNPTRKMLDHIAREVGLKKRVVQVWFHNTRARERK is higher in abundance fitness: -1.02 ± 0.29 for the first, -0.139 ± 0.14 for the second.

Going from RLRTTITPEQLEILYEKYLLDSNPTRKMLDHIAREVGLKKRVVQVWFGNTRARERK to RLRTTITPEQLEILYEKYLLDSNPTRKMLDHIAREVGLKKRVVQVWFVNTRARERK, the abundance fitness falls from 0.178 ± 0.079 to -0.152 ± 0.071.

RLRTTITPEQLEILYEKYLLDSNPTRKMLDHIAREVGLKKRVVQVWFKNTRARERK and RLRTTITPEQLEILYEKYLLDSNPTRKMLDHIAREVGLKKRVVQVWFSNTRARERK are within error of each other in abundance fitness: -0.006 ± 0.098 for the first, -0.049 ± 0.074 for the second.

RLRTTITPEQLEILYEKYLLDSNPTRKMLDHIAREVGLKKRVVQVWFFNTRARERK and RLRTTITPEQLEILYEKYLLDSNPTRKMLDHIAREVGLKKRVVQVWFLNTRARERK are within error of each other in abundance fitness: -0.389 ± 0.12 for the first, -0.611 ± 0.12 for the second.

RLRTTITPEQLEILYEKYLLDSNPTRKMLDHIAREVGLKKRVVQVWPQNTRARERK and RLRTTITPEQLEILYEKYLLDSNPTRKMLDHIAREVGLKKRVVQVWRQNTRARERK are within error of each other in abundance fitness: -0.885 ± 0.17 for the first, -0.969 ± 0.077 for the second.

RLRTTITPEQLEILYEKYLLDSNPTRKMLDHIAREVGLKKRVVQVWTQNTRARERK and RLRTTITPEQLEILYEKYLLDSNPTRKMLDHIAREVGLKKRVVQVWKQNTRARERK are within error of each other in abundance fitness: -0.789 ± 0.11 for the first, -1 ± 0.27 for the second.

RLRTTITPEQLEILYEKYLLDSNPTRKMLDHIAREVGLKKRVVQVWQQNTRARERK and RLRTTITPEQLEILYEKYLLDSNPTRKMLDHIAREVGLKKRVVQVWLQNTRARERK are within error of each other in abundance fitness: -1.18 ± 0.34 for the first, -0.74 ± 0.1 for the second.

Going from RLRTTITPEQLEILYEKYLLDSNPTRKMLDHIAREVGLKKRVVQVWVQNTRARERK to RLRTTITPEQLEILYEKYLLDSNPTRKMLDHIAREVGLKKRVVQVWYQNTRARERK, the abundance fitness rises from -0.974 ± 0.1 to -0.072 ± 0.11.

Going from RLRTTITPEQLEILYEKYLLDSNPTRKMLDHIAREVGLKKRVVQVWWQNTRARERK to RLRTTITPEQLEILYEKYLLDSNPTRKMLDHIAREVGLKKRVVQVWNQNTRARERK, the abundance fitness falls from 0.049 ± 0.079 to -0.905 ± 0.22.

Going from RLRTTITPEQLEILYEKYLLDSNPTRKMLDHIAREVGLKKRVVQVWFQNTWARERK to RLRTTITPEQLEILYEKYLLDSNPTRKMLDHIAREVGLKKRVVQVWFQNTCARERK, the abundance fitness falls from 0.057 ± 0.078 to -0.267 ± 0.093.

Going from RLRTTITPEQLEILYEKYLLDSNPTRKMLDHIAREVGLKKRVVQVWFQNTLARERK to RLRTTITPEQLEILYEKYLLDSNPTRKMLDHIAREVGLKKRVVQVWFQNTPARERK, the abundance fitness falls from 0.234 ± 0.086 to -1.05 ± 0.26.

Work on RLRTTITPEQLEILYEKYLLDSNPTRKMLDHIAREVGLKKRVVQVWFQNTNARERK yielded an abundance fitness of 0.156 ± 0.15.

— the Human Domainome abundance scans (Beltran et al. 2025)
